Test results reported in PMC3594540 (Nature structural & molecular biology, 2013).
Where a chain is given by its changes, count along the chain named.

Assays:
Test in all cases: cell-based or functional assay
[1] = molecular target: T1, human PLCβ3 (residues 10–1234) (human, UniProt Q01970 10-1234)
T1 sequence: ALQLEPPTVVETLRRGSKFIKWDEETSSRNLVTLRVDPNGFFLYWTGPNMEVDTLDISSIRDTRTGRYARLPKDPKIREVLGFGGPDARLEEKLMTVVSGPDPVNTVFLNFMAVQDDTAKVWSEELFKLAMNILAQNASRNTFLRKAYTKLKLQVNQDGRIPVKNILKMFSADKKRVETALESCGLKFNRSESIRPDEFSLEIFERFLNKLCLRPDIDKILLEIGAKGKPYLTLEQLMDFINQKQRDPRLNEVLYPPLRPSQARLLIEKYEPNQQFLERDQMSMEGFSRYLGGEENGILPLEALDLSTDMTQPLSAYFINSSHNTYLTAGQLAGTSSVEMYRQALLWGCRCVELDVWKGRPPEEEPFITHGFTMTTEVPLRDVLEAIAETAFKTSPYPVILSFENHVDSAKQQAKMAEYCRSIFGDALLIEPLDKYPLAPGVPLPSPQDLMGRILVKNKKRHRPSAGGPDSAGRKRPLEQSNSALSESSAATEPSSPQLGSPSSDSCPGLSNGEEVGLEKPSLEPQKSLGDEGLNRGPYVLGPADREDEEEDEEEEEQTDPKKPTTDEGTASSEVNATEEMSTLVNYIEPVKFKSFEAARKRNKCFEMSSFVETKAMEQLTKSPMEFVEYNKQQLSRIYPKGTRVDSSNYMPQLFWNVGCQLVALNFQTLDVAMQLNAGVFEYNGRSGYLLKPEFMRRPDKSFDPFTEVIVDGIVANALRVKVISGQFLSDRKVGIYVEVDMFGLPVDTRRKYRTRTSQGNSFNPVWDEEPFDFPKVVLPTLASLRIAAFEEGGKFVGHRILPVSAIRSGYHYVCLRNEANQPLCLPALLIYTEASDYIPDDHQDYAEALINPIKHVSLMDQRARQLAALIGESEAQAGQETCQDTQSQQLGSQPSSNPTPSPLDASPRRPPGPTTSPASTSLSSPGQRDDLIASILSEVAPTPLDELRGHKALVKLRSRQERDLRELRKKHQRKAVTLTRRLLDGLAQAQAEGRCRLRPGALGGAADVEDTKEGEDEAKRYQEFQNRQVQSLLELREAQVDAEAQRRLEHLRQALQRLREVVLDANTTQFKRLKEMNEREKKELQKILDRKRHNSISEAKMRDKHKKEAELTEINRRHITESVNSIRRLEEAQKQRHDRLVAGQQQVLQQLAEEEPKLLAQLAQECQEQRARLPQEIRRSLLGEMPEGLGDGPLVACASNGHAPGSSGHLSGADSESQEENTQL

PLCβ3 L876A = PLCβ3 L876A (human, UniProt Q01970 10-1234, L876A)
PLCβ3 T652E = molecular target: T2, PLCβ3 T652E (human, UniProt Q01970)
T2 chain: T1 sequence with T643E

B1: murine Gαq (residues 7–359), biotinylated for bead binding (natural protein)
chain: MACCLSEEAKEARRINDEIERQLRRDKRDARRELKLLLLGTGESGKSTFIKQMRIIHGSGYSDEDKRGFTKLVYQNIFTAMQAMIRAMDTLKIPYKYEHNKAHAQLVREVDVEKVSAFENPYVDAIKSLWNDPGIQECYDRRREYQLSDSTKYYLNDLDRVADPSYLPTQQDVLRVRVPTTGIIEYPFDLQSVIFRMVDVGGQRSERRKWIHCFENVTSIMFLVALSEYDQVLVESDNENRMEESKALFRTIITYPWFQNSSVILFLNKKDLLEEKIMYSHLVDYFPEYDGPQRDAQAAREFILKMFVDLNPDSDKIIYSHFTCATDTENIRFVFAAVKDTILQLNLKEYNLV
EC50 of Gαq-stimulated PIP2 hydrolysis ([3H]-IP3 release from liposomes) [1]: 120 nM | Max specific activity of Gαq-stimulated PIP2 hydrolysis (liposomes) [1]: 2900 nmol IP3/min/nmol PLCβ3 | EC50 of Gαq-stimulated PIP2 hydrolysis ([3H]-IP3 release from liposomes) (PLCβ3 L876A): 19 nM | Max specific activity of Gαq-stimulated PIP2 hydrolysis (liposomes) (PLCβ3 L876A): 6500 nmol IP3/min/nmol PLCβ3 | EC50 of Gαq-stimulated PIP2 hydrolysis ([3H]-IP3 release from liposomes) (PLCβ3 T652E): 1150 nM
